Reference: patent US20240200091A1, “USE OF PROTOPORPHYRINOGEN OXIDASE” (BEIJING DABEINONG BIOTECHNOLOGY CO., LTD., priority 2021, published 2024)

Tests used:
Type in all cases: in vivo
Conditions in all cases: 7 DAT, number of plants of 24 per genotype, grades
[1] = tested on: Arabidopsis thaliana T1 plants; experiment: flumioxazin tolerance of transgenic Arabidopsis thaliana T1 plants (spray, grade of pesticide damage)
Summary of the method: (§1)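 T1 lines expressing individual PPO variants, control-vector and wild-type plants (24 per genotype) were sprayed 18 days after sowing: oxyfluorfen 180/720, saflufenacil 25/100, flumioxazin 60/240, sulfentrazone 450/900 g ai/ha, or water. Damage graded 0–3 from injured leaf area at 7 DAT.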

[2] = tested on: Arabidopsis thaliana T1 plants; experiment: sulfentrazone tolerance of transgenic Arabidopsis thaliana T1 plants (spray, grade of pesticide damage)
Summary of the method: as §1

[3] = tested on: Arabidopsis thaliana T1 plants; experiment: oxyfluorfen tolerance of transgenic Arabidopsis thaliana T1 plants (spray, grade of pesticide damage)
Summary of the method: as §1

[4] = tested on: Arabidopsis thaliana T1 plants; experiment: saflufenacil tolerance of transgenic Arabidopsis thaliana T1 plants (spray, grade of pesticide damage)
Summary of the method: as §1

B1: PPO14A: nucleotide sequence encoding microbial protoporphyrinogen oxidase PPO14 (SEQ ID NO:14), Arabidopsis thaliana/soybean common codon usage bias (nucleic acid)
DNA: ATGTCTAACAAGGCCTTGCTGCTCTATAGTACAAGAGAAGGTCAAACTAAAAAGATTCTTCAGTACATAGACAAAGAGCTTCATGATTACCAATGTGATTATGTCGATCTTCACACAATGCCTATAGAGATTGATTTCTCTGGTTATGATAAAGTTTTGGTAGGGGCGTCCATCCGGTATGGACATTTAAACAAAAAACTTTACAGATTCATCGAGAGGTACAAAGCAGAGTTGAAGGATAATAATGCTGCTTTCTTCTGCGTCAATCTAACCGCAAGGAAAGAACAACAAGGAAAAGATACTCCTGAAGGATCAGCTTATATTCAGACTTTTCTCAAGAAGTCTCCATGGCAGCCAGCATTGATAGGTGTTTTTGCTGGAGCTTTACGTTACCCGAAGTATAGATGGTTTGACAAGATGATGATTCGACTAATCATGACTATGACGGGCGGTGAAACCGACACATCAAAGGAAGTGGAGTATACAAATTGGAAGAAAGTGAGCCTCTTTGTTGAAAACTGGCAAAAGCAGTGA
modifications: The nucleotide sequence of PPO14A
19 plant: The grade of pesticide damage/plant: grade 0 ([1]; flumioxazin 240 g ai/ha (4×))
20 plant: The grade of pesticide damage/plant: grade 0 ([3]; oxyfluorfen 720 g ai/ha (4×))
24: The grade of pesticide: grade 0 ([2]; sulfentrazone 450 g ai/ha (1×))
5: The grade of pesticide: grade 1 ([2]; sulfentrazone 900 g ai/ha (2×))
5 plant: The grade of pesticide damage/plant: grade 1 ([1]; flumioxazin 240 g ai/ha (4×))
0: The grade of pesticide: grade 1 ([2]; sulfentrazone 450 g ai/ha (1×)) | The grade of pesticide: grade 2 ([2]; sulfentrazone 450 g ai/ha (1×)) | The grade of pesticide: grade 3 ([2]; sulfentrazone 450 g ai/ha (1×)) | The grade of pesticide: grade 2 ([2]; sulfentrazone 900 g ai/ha (2×)) | The grade of pesticide: grade 3 ([2]; sulfentrazone 900 g ai/ha (2×))
24 plant: The grade of pesticide damage/plant: grade 0 ([1]; flumioxazin 60 g ai/ha (1×)) | The grade of pesticide damage/plant: grade 0 ([3]; oxyfluorfen 180 g ai/ha (1×)) | The grade of pesticide damage/plant: grade 0 ([4]; saflufenacil 25 g ai/ha (1×)) | The grade of pesticide damage/plant: grade 1 ([4]; saflufenacil 100 g ai/ha (4×))
4 plant: The grade of pesticide damage/plant: grade 1 ([3]; oxyfluorfen 720 g ai/ha (4×))
19: The grade of pesticide: grade 0 ([2]; sulfentrazone 900 g ai/ha (2×))
0 plant: The grade of pesticide damage/plant: grade 1 ([1]; flumioxazin 60 g ai/ha (1×)) | The grade of pesticide damage/plant: grade 2 ([1]; flumioxazin 60 g ai/ha (1×)) | The grade of pesticide damage/plant: grade 3 ([1]; flumioxazin 60 g ai/ha (1×)) | The grade of pesticide damage/plant: grade 2 ([1]; flumioxazin 240 g ai/ha (4×)) | The grade of pesticide damage/plant: grade 3 ([1]; flumioxazin 240 g ai/ha (4×)) | The grade of pesticide damage/plant: grade 1 ([3]; oxyfluorfen 180 g ai/ha (1×)) | The grade of pesticide damage/plant: grade 2 ([3]; oxyfluorfen 180 g ai/ha (1×)) | The grade of pesticide damage/plant: grade 3 ([3]; oxyfluorfen 180 g ai/ha (1×)) | The grade of pesticide damage/plant: grade 2 ([3]; oxyfluorfen 720 g ai/ha (4×)) | The grade of pesticide damage/plant: grade 3 ([3]; oxyfluorfen 720 g ai/ha (4×)) | The grade of pesticide damage/plant: grade 1 ([4]; saflufenacil 25 g ai/ha (1×)) | The grade of pesticide damage/plant: grade 2 ([4]; saflufenacil 25 g ai/ha (1×)) | The grade of pesticide damage/plant: grade 3 ([4]; saflufenacil 25 g ai/ha (1×)) | The grade of pesticide damage/plant: grade 0 ([4]; saflufenacil 100 g ai/ha (4×)) | The grade of pesticide damage/plant: grade 2 ([4]; saflufenacil 100 g ai/ha (4×)) | The grade of pesticide damage/plant: grade 3 ([4]; saflufenacil 100 g ai/ha (4×))
